Reference: paper PMC2901844 (DNA repair, 2010)
Each block holds one binder with its values, some of them ahead of it.

Assays:
[1] = biological target: T1, full length Cricetulus griseus Xrcc1-ECFP (Cricetulus griseus, UniProt O54935 1-633); experiment: pull-down
[2] = biological target: T1, full length Cricetulus griseus …; experiment: far-Western, overlay or dot blot
Xrcc1(1–325)-ECFP = Xrcc1(1–325)-ECFP (Cricetulus griseus, UniProt O54935 1-325); experiment: far-Western, overlay or dot blot
Chain of Xrcc1(1–325)-ECFP (O54935 1-325): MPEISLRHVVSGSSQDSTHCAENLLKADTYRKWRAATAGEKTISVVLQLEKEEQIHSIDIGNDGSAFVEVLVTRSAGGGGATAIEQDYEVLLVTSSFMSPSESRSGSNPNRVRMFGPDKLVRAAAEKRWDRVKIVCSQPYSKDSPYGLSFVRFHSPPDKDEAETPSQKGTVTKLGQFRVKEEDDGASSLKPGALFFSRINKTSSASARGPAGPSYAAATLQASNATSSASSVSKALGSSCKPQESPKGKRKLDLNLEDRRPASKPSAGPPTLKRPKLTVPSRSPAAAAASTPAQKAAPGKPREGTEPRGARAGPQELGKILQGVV

T1 sequence (O54935 whole entry): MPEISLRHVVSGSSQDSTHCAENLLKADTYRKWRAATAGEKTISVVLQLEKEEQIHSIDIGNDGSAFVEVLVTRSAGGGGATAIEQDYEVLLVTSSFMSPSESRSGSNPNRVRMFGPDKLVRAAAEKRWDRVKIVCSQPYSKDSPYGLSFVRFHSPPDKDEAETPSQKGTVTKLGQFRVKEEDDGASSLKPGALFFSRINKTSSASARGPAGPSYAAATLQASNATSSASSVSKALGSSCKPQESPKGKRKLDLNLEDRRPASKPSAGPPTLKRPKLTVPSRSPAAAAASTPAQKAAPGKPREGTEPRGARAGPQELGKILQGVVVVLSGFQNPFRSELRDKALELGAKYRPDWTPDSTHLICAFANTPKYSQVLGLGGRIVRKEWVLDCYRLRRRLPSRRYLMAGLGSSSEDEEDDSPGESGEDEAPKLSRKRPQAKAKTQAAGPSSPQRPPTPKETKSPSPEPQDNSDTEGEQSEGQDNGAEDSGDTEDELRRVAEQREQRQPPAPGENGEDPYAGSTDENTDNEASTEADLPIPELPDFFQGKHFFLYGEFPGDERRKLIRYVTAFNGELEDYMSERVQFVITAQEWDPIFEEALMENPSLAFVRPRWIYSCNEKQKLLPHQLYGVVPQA

binding result [1]: binds
B1: catalytic domain of human UNG2 (Δ93 UNG2) (domain or fragment, UniProt P13051-1 94-313, looked up)
chain: FGESWKKHLSGEFGKPYFIKLMGFVAEERKHYTVYPPPHQVFTWTQMCDIKDVKVVILGQDPYHGPNQAHGLCFSVQRPVPPPPSLENIYKELSTDIEDFVHPGHGDLSGWAKQGVLLLNAVLTVRAHQANSHKERGWEQFTDAVVSWLNQNSNGLVFLLWGSYAQKKGSAIDRKRHHVLQTAHPSPLSVYRGFFGCRHFSKTNELLQKSGKKPIDWKEL

binding result [2]: binds | binding result (Xrcc1(1–325)-ECFP): binds
B2: Cy-3 labelled Δ93 UNG2 (domain or fragment, human, UniProt P13051-1 94-313, looked up)
chain: B1 chain
modifications: Cy-3 label (Cy 3 Ab Labeling kit), sites not stated
